Measured values published in patent US7829301B2, “Screening assays for binding antagonists of the AMD-associated variant of factor H (H384)” (The University of Manchester, priority 2006, dated 2010).

Columns and labels:
[1] = Microtitre plate assay: binding to HSI and HSII immobilized on EpranEx plate; parameters: species or system pig; conditions: HS immobilized on allylamine-coated EpranEx plate
Text: (§1) The heparin/HS/DS-binding activities of the FHCCP6-8(H384) and FHCCP6-8(Y384) variants (using biotinylated-FHCCP6-8 constructs), and in some cases full-length Factor H (detected with an antibody), were compared using an assay where the glycosaminoglycans (GAGs) were immobilized on allylamine-coated EpranEx plates (Mahoney et al (2004) Anal. Biochem. 330, 123-129), kindly supplied by Plasso Technology Ltd., Sheffield, UK. Previously, we have shown that heparin/HS can bind non-covalently to surfaces plasma polymerized with allylamine in such a way that these GAGs can still associate with a wide-range of proteins (Mahoney et al. (2005) J. Biol. Chem. 280, 27044-27055; Mahoney et al. (2004) ibid).
(§2) The following GAG preparations were analyzed: unfractionated heparins corresponding to the 2nd, 4th and 5th International Standards (denoted here as 2IS, 4IS and 5IS, respectively (Mulloy et al. (2000) Thromb. Haemost. 52, 148-153)); enoxaparin, dalteparin and LMr heparin from Sigma (Cat. No. H3400); selectively desulfated heparins prepared from 2IS heparin as described in Mulloy et al. (1994) Carbohydr. […]
(§3) In the case of the biotinylated FHCCP6-8(H384) and FHCCP6-8(Y384) constructs, bound material was detected by adding 200 μl/well of a 1:10,000 dilution of ExtrAvidin alkaline phosphatase (Sigma, Cat. No. E-2636) for 30 minutes. […]

[2] = Microtitre plate assay: biotinylated proteins binding to unfractionated heparin immobilized on EpranEx plates
Procedure: The heparin/HS/DS-binding activities of the FHCCP6-8(H384) and FHCCP6-8(Y384) variants (using biotinylated-FHCCP6-8 constructs), and in some cases full-length Factor H (detected with an antibody), were compared using an assay where the glycosaminoglycans (GAGs) were immobilized on allylamine-coated EpranEx plates (Mahoney et al (2004) Anal. Biochem. 330, 123-129), kindly supplied by Plasso Technology Ltd., Sheffield, UK. […]
as §2, §3
(§4) In these plate assays all data points were determined in quadruplicate from each of two independent experiments.

[3] = Microtitre plate assay: biotinylated proteins binding to immobilized dermatan sulphate; parameters: species or system porcine; conditions: biotinylated proteins 0-10 pmol/well
Text: as §1, §2, §3

[4] = Microtitre plate assay: biotinylated proteins binding to selectively desulphated 2IS heparin
Text: as §1, §2
In the case of the biotinylated FHCCP6-8(H384) and FHCCP6-8(Y384) constructs, bound material was detected by adding 200 μl/well of a 1:10,000 dilution of ExtrAvidin alkaline phosphatase (Sigma, Cat. No. E-2636) for 30 minutes. […] For the full-length protein, the level of binding (to 4IS, HSI and HSII) was determined by incubation of the plates for 30 min with MRC OX23 (a monoclonal antibody against factor H (Sim et al. (1983) Biosci. Rep. 3, 1119-1131; 1 μg/well) followed by a 1:1000 dilution of alkaline phosphatase-conjugated goat anti-mouse IgG (Sigma, Cat. No. A-3438) for another 30 minutes. The plates were then developed for 10 min as described above. The absorbance values at 405 nm were determined and corrected against blank wells (i.e., those that contained no GAGs).

[5] = Biotinylated bovine HS plate assay; assay type: binding; conditions: proteins immobilised at 1 μg/well
Procedure: The HS binding properties of FHCCP6-8(H384), FHCCP6-8(Y384) and full length Factor H were further tested using biotinylated bovine kidney heparan sulphate (Sigma) where the proteins were coated onto the wells of a Maxisorp microtitre plate (NUNC) at 1 μg/well in PBS (Oxoid; 137 mM NaCl, 2.6 mM KCl, 8.2 mM Na2HPO4, 1.5 mM KH2PO4, pH 7.3) overnight at room temperature. Link_TSG6 (denoted as L-TSG-6 in FIG. 9), a known HS-binding domain (see Mahoney et al. (2005) J. Biol. Chem. 280, 27044-27055) was immobilised at 1 μg/well as a positive control. Plates were blocked the next morning with 1% (w/v) BSA (Sigma, Cat. No. A-4503) in standard assay buffer (20 mM HEPES, 130 mM NaCl, 0.05% (v/v) Tween-20, pH 7.3) for 90 minutes at 37° C. The standard assay buffer was used for all subsequent incubations, dilutions and washes at room temperature. The biotinylated HS was incubated at various concentrations with the immobilised proteins for 4 hours. Bound material was detected by adding 200 μl/well of a 1:10,000 dilution of ExtrAvidin alkaline phosphatase (Sigma, Cat. No. E-2636) for 30 minutes. Plates were then developed with 200 μl/well of 1 mg/ml disodium p-nitrophenylphosphate (pNPP; Sigma) in 0.05 M Tris-HCl, 0.1 M NaCl, pH9.3, and developed for 40 minutes; the absorbance at 405 nm was measured and the signal from blank wells subtracted.

[6] = Microtitre plate assay: biotinylated-4IS heparin binding to immobilized proteins
Procedure: Alternatively, the unlabelled FHCCP6-8(H384), FHCCP6-8(Y384) and mutant proteins (i.e., K370A, R386A, K387A in the context of the FHCCP6-8(H384) construct) were adsorbed at 1 μg/ml in PBS onto microtitre plates (Nunc Maxisorb, Kastrup, Denmark) and their ligand-binding activities at pH 7.3 were determined using biotinylated-4IS heparin essentially as described in Mahoney et al. (2005) ibid. Plate assays were carried out in 20 mM HEPES, 130 mM NaCl, 0.05% (v/v) Tween-20, pH 7.3 and the level of bound heparin determined as described above for the biotinylated proteins.
as §4

Row | Molecule | binding to HS preparations HSI and HSII [1] | binding to immobilized unfractionated heparins compared to FHCCP6-8(Y384) ([2]; 2IS, 4IS and 5IS) | interaction with DS [3] | effect of removal of 2-O- or N-sulfate on binding ([4]; 2-O-deS or N-deS vs unmodified 2IS) | interaction with biotinylated bovine kidney HS [5] | binding to 4IS heparin relative to FHCCP6-8(H384) ([2]; heparin bound to allylamine-coated surface, biotinylated proteins) | binding to 6-O-deS and N-deS/re-N-Ac preparations versus parental 2IS [4] | effect of removal of 2-O-, 2,6-O- or N-sulfates on binding ([4]; vs unmodified 2IS) | binding to 4IS heparin relative to FHCCP6-8(H384) [6]
1 | FHCCP6-8(H384): recombinant protein of Factor H CCPs 6-8, H384 allotype, with N-terminal non-authentic glycine (SEQ ID NO: 1) (protein, listed as Homo sapiens, VARIANT (1)...(188) Protein sequence of the FHCCP6-8 (H384) construct) MGTLKPCDYPDIKHGGLYHENMRRPYFPVAVGKYYSYYCDEHFETPSGSYWDHIHCTQDGWSPAVPCLRKCYFPYLENGYNQNHGRKFVQGKSIDVACHPGYALPKAQTTVTCMENGWSPTPRCIRVKTCSKSSIDIENGFISESQYTYALKEKAKYQCKLGYVTADGETSGSITCGKDGWSAQPTCI | lack of activity | more of the FHCCP6-8(H384) protein bound | interact with DS, albeit to a lesser degree than heparin | large reduction | interact | – | – | – | –
2 | FHCCP6-8(Y384): recombinant Factor H CCPs 6-8, Y384 variant obtained by site-directed mutagenesis (SEQ ID NO: 3) (protein, listed as Homo sapiens, VARIANT (1)...(188) FHCCP6-8 (Y384 allotype of mature Factor H)) MGTLKPCDYPDIKHGGLYHENMRRPYFPVAVGKYYSYYCDEHFETPSGSYWDHIHCTQDGWSPAVPCLRKCYFPYLENGYNQNYGRKFVQGKSIDVACHPGYALPKAQTTVTCMENGWSPTPRCIRVKTCSKSSIDIENGFISESQYTYALKEKAKYQCKLGYVTADGETSGSITCGKDGWSAQPTCI | lack of activity | – | interact with DS, albeit to a lesser degree than heparin | – | interact | bind less well | indistinguishable | small effect | bind less well
